In FireProtDB (doi:10.1021/bi034486i):

B1: Thioredoxin-like protein 4A, P83876 (parent)
chain: MSYMLPHLHNGWQVDQAILSEEDRVVVIRFGHDWDPTCMKMDEVLYSIAEKVKNFAVIYLVDITEVPDFNKMYELYDPCTVMFFFRNKHIMIDLGTGNNNKINWAMEDKQEMVDIIETVYRGARKGRGLVVSPKDYSTKYRY

Variants of: B1
Settings: Homo sapiens; pH 7.82; 20 °C; GdnHCl; CD; sodium phosphate 50 mM; structure 1QGV; whole UniProt chain shown
With MSYMLPHLHNGWQVDQAILSEEDRVVVIRFGHDWDPTCMKMDEVLYSIAEKVKNFAVIYLVDITEVPDFNKMYELYDPCTVMFFFRNKHIMIDLGTGNNNKINWAMEDKQEMVDIIETVYRGARKDRGLVVSPKDYSTKYRY the “ddG of mutation (higher = less stable)” value was 1.71 kcal/mol, the denaturant m value was 2.78 kcal/mol/M and the “denaturant midpoint (higher = more stable)” value was 3.36 M. It also gave an unfolding free energy of 9.34 kcal/mol.
